Measurements: US20110028686A1 (published 2011)
Like-named read-outs stand apart in the source and are kept apart here. Square brackets hold non-standard residues; d marks the D form. Ends that are not written are not given here. pS = N[C@@H](COP(=O)(O)O)C(=O)O

Assays:
calmodulin (Sigma) [1] = target: T1, calmodulin (Sigma) (UniProt P62157 2-149); test: FP; specificity ratio
calmodulin (Sigma) [2] = target: T1, calmodulin (Sigma); test: FP, 50 nM fluorescein-labelled peptide titrated with calmodulin, 25 C
calmodulin (Sigma) [3] = target: T1, calmodulin (Sigma); test: FP with calmodulin
[4] = target: carbonic anhydrase II (Sigma); test: FP, 50 nM fluorescein-labelled peptide titrated with carbonic anhydrase II, 25 C
Target sequence in this assay (P00921 2-260): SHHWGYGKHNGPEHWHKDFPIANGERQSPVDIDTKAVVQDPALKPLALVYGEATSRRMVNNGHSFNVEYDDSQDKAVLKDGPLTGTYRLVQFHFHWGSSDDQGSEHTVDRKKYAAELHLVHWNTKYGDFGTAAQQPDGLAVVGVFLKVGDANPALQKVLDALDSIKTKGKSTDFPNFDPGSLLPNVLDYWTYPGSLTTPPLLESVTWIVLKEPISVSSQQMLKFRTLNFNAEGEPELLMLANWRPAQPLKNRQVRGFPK

HisKIX [5] = target: T2, HisKIX (UniProt P45481 586-672); test: FP with HisKIX
T2 construct: range 586-672; the residue numbers fit mouse CBP; also called His-tagged CBP KIX domain; CBP KIX; not shown: amino-terminal hexahistidine tag and linker of pET15b
T2 sequence (P45481 586-672): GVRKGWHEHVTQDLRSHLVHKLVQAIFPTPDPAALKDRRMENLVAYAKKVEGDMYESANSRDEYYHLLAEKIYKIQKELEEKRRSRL

[6] = target: T3, Human recombinant Bcl-2 (1-205), soluble GST-fusion (Santa Cruz Biotechnology) (human, UniProt P10415 1-205); test: fluorescence emission titration, fluorescein-labelled peptide + serially diluted Bcl-2, 4 C, PBS
T3 construct: Bought; also called GST-Bcl-2; not shown: glutathione S-transferase (GST) fusion partner
T3 sequence (P10415 1-205): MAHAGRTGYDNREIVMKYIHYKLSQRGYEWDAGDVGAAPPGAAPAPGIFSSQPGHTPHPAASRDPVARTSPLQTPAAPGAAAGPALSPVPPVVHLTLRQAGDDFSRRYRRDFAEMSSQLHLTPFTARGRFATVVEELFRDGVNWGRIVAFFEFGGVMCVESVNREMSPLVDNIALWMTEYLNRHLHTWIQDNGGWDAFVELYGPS

[7] = target: carbonic anhydrase II (Sigma); test: fluorescence emission titration, fluorescein-labelled peptide + carbonic anhydrase II, PBS
Target sequence in this assay (chain, as listed by the source): as the sequence (P00921 2-260) above

calmodulin (Sigma) [8] = target: T1, calmodulin (Sigma); test: fluorescence emission titration, fluorescein-labelled peptide + calmodulin (HEPES, KCl, CaCl2 buffer)
HisKIX [9] = target: T2, HisKIX; test: FP, fluorescein-labelled peptide titrated with HisKIX, 25 C
HisKIX [10] = target: T2, HisKIX; test: as above; remark: listed apart in the source
CBP KIX Y658F [11] = target: T4, CBP KIX Y658F (UniProt P45481 586-665, limits assumed); test: FP, 25 nM fluorescein-labelled ligand titrated with CBP KIX variant, 25 C
T4 construct: domain: KIX
T4 sequence (P45481 586-665 Y658F limits assumed): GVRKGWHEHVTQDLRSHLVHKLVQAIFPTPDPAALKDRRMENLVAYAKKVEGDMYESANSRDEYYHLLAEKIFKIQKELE

CBP KIX Y658A [12] = target: T5, CBP KIX Y658A (UniProt P45481 586-665, limits assumed); test: as above
T5 construct: domain: KIX
T5 sequence (P45481 586-665 Y658A limits assumed): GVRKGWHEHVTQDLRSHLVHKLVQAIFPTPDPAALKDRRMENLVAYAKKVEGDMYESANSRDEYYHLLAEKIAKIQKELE

CBP KIX K606A [13] = target: T6, CBP KIX K606A (UniProt P45481 586-665, limits assumed); test: as above
T6 construct: domain: KIX
T6 sequence (P45481 586-665 K606A limits assumed): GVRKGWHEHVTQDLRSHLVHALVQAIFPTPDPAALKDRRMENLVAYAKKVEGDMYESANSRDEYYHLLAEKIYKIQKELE

[14] = target: T7, CBP KIX Y650A (Example 20) (UniProt P45481 586-665, limits assumed); test: as above
T7 construct: domain: KIX
T7 sequence (P45481 586-665 Y650A limits assumed): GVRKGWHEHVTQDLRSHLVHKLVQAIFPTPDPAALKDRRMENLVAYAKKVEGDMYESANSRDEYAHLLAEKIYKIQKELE

CBP KIX E655A [15] = target: T8, CBP KIX E655A (UniProt P45481 586-665, limits assumed); test: as above
T8 construct: domain: KIX
T8 sequence (P45481 586-665 E655A limits assumed): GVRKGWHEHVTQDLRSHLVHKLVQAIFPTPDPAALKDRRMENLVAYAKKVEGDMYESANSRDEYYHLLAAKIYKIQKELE

CBP KIX LL652-3AA [16] = target: T9, CBP KIX LL652-3AA (UniProt P45481 586-665, limits assumed); test: as above
T9 construct: domain: KIX
T9 sequence (P45481 other isoform, or with tags, fused parts or gaps limits assumed): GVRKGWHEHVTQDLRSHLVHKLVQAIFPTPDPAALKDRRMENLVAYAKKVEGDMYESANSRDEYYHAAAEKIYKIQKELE

CBP KIX L599A [17] = target: T10, CBP KIX L599A (UniProt P45481 586-665, limits assumed); test: as above
T10 construct: domain: KIX
T10 sequence (P45481 586-665 L599A limits assumed): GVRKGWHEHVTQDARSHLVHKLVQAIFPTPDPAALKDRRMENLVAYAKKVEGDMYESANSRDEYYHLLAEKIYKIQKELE

CBP KIX Q661A [18] = target: T11, CBP KIX Q661A (UniProt P45481 586-665, limits assumed); test: as above
T11 construct: domain: KIX
T11 sequence (P45481 586-665 Q661A limits assumed): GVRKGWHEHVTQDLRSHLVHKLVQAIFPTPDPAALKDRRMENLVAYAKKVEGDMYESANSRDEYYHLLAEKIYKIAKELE

CBP KIX K662A [19] = target: T12, CBP KIX K662A (UniProt P45481 586-665, limits assumed); test: as above
T12 construct: domain: KIX
T12 sequence (P45481 586-665 K662A limits assumed): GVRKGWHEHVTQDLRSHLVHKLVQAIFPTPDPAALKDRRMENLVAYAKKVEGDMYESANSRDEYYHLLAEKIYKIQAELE

CBP KIX L603A [20] = target: T13, CBP KIX L603A (UniProt P45481 586-665, limits assumed); test: as above
T13 construct: domain: KIX
T13 sequence (P45481 586-665 L603A limits assumed): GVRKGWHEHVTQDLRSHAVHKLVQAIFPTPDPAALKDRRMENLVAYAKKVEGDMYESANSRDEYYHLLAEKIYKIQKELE

CBP KIX I660A [21] = target: T14, CBP KIX I660A (UniProt P45481 586-665, limits assumed); test: as above
T14 construct: domain: KIX; also called 1660A
T14 sequence (P45481 586-665 I660A limits assumed): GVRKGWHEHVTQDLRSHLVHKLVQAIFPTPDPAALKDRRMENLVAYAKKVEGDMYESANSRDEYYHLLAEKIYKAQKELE

CBP KIX I657A [22] = target: T15, CBP KIX I657A (UniProt P45481 586-665, limits assumed); test: as above
T15 construct: domain: KIX; also called 1657A
T15 sequence (P45481 586-665 I657A limits assumed): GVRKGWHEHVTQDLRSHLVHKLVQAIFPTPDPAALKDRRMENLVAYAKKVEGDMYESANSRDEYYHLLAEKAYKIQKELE

HisKIX [23] = target: T2, HisKIX; test: FP with HisKIX; end of the range assigned by Table 1
[24] = target: T16, CBP KIX, wild type (Example 20) (UniProt P45481 586-665, limits assumed); test: FP, 25 nM fluorescein-labelled ligand titrated with CBP KIX, 25 C
T16 construct: domain: KIX; also called wild type CBP KIX; CBP MX
T16 sequence (P45481 586-665 limits assumed): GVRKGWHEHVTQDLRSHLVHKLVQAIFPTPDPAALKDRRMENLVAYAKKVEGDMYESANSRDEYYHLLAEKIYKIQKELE

[25] = target: carbonic anhydrase II (Sigma); test: FP, 50 nM fluorescein-labelled peptide titrated with carbonic anhydrase II, 25 C; remark: listed apart in the source
Target sequence in this assay (chain, as listed by the source): as the sequence (P00921 2-260) above

CBP KIX Y658F [26] = target: T4, CBP KIX Y658F; test: FP with CBP KIX variant
CBP KIX Y658A [27] = target: T5, CBP KIX Y658A; test: FP with CBP KIX variant
CBP KIX K606A [28] = target: T6, CBP KIX K606A; test: FP with CBP KIX variant
[29] = target: T7, CBP KIX Y650A (Example 20); test: FP with CBP KIX variant
CBP KIX E655A [30] = target: T8, CBP KIX E655A; test: FP with CBP KIX variant
CBP KIX LL652-3AA [31] = target: T9, CBP KIX LL652-3AA; test: FP with CBP KIX variant
CBP KIX L599A [32] = target: T10, CBP KIX L599A; test: FP with CBP KIX variant
CBP KIX Q661A [33] = target: T11, CBP KIX Q661A; test: FP with CBP KIX variant
CBP KIX K662A [34] = target: T12, CBP KIX K662A; test: FP with CBP KIX variant
CBP KIX L603A [35] = target: T13, CBP KIX L603A; test: FP with CBP KIX variant
CBP KIX I660A [36] = target: T14, CBP KIX I660A; test: FP with CBP KIX variant
CBP KIX I657A [37] = target: T15, CBP KIX I657A; test: FP with CBP KIX variant
[38] = target: T16, CBP KIX, wild type (Example 20); test: FP, fluorescein-labelled PPKID4^P titrated with CBP KIX
calmodulin (Sigma) [39] = target: T1, calmodulin (Sigma); test: FP with calmodulin (text value; Table 2 prints 52 ± 12)
CBP KIX Y658A [40] = target: T5, CBP KIX Y658A; test: FP with CBP KIX variant (text value; Table 3 prints 3.9 ± 0.3)
[41] = target: T3, Human recombinant Bcl-2 (1-205), …; test: fluorescence emission titration with Bcl-2

B1: peptide C^P (peptide)
peptide: RRL[pS]FFYILLDLYLDAPGVC(acetamidofluorescein)-NH2
notes: Chimeric alpha-helical portion of the PPKID peptides (residues 15-33); also called Peptide C (phosphorylated)
Krel = Kd (CalM)/Kd (HisKIX) (calmodulin (Sigma) [1]): 74 | Kd (calmodulin (Sigma) [2]): 178 µM | fold lower affinity than PPKID4^P (calmodulin (Sigma) [3]): 4 fold | Kd [4]: 97 µM | fold increase in affinity over KID-B^P (HisKIX [5]): > 20 fold | fold lower affinity than PPKID4^P (HisKIX [5]): 5 fold | ΔΔG relative to KID-B^P (HisKIX [5]): -1.8 kcal/mol

B2: Bak peptide (peptide)
peptide: GQVGRQLAIIGDDINRYC-NH2
modifications: not fully specified (residue 18)
notes: Labelled form used for Kd determinations carries an additional carboxy-terminal YC; The printed mass (1724) looks too small for residues 72-94; also called Bak BH3 peptide; Bak (72-94)
Kd [6]: 363 nM | Kd [7]: 22 µM | Kd (calmodulin (Sigma) [8]): 25 µM

GISWPTFEGDDAPVRRLSFFYILLDLYLDAPGVC(acetamidofluorescein)-NH2 (designed binder, also called PPKID6 (unphosphorylated)) [PPKID6^U]
Kd (HisKIX [9]): 1500 nM | Kd (HisKIX [10]): 1500 nM | Krel = Kd (CalM)/Kd (HisKIX) (calmodulin (Sigma) [1]): > 112 | Kd (CBP KIX Y658F [11]): 2.8 µM | Kd (CBP KIX Y658A [12]): 1700 nM | Kd (CBP KIX K606A [13]): 1200 nM | Kd [14]: 1300 nM | Kd (CBP KIX E655A [15]): 1700 nM | Kd (CBP KIX LL652-3AA [16]): 140 nM | Kd (CBP KIX L599A [17]): 3.3 µM | Kd (CBP KIX Q661A [18]): 410 nM | Kd (CBP KIX K662A [19]): 1800 nM | Kd (CBP KIX L603A [20]): 2500 nM | Kd (CBP KIX I660A [21]): 6.1 µM | Kd (CBP KIX I657A [22]): 3.6 µM | Kd (calmodulin (Sigma) [2]): > 168 µM | fold enhancement in affinity over KID-AB^U (HisKIX [23]): ≥ 77 fold | fold enhancement in affinity over KID-B^U (HisKIX [23]): ≥ 198 fold | fold enhancement in affinity over peptide C^U (HisKIX [23]): 7 to 14 fold | Kd [24]: 540 nM | Kd [25]: 79 µM | ΔΔG relative to wild type CBP KIX (CBP KIX Y658F [26]): 0.97 kcal/mol | ΔΔG relative to wild type CBP KIX (CBP KIX Y658A [27]): 0.68 kcal/mol | ΔΔG relative to wild type CBP KIX (CBP KIX K606A [28]): 0.47 kcal/mol | ΔΔG relative to wild type CBP KIX [29]: 0.52 kcal/mol | ΔΔG relative to wild type CBP KIX (CBP KIX E655A [30]): 0.68 kcal/mol | ΔΔG relative to wild type CBP KIX (CBP KIX LL652-3AA [31]): -0.8 kcal/mol | ΔΔG relative to wild type CBP KIX (CBP KIX L599A [32]): 1.1 kcal/mol | ΔΔG relative to wild type CBP KIX (CBP KIX Q661A [33]): -0.16 kcal/mol | ΔΔG relative to wild type CBP KIX (CBP KIX K662A [34]): 0.71 kcal/mol | ΔΔG relative to wild type CBP KIX (CBP KIX L603A [35]): 0.91 kcal/mol | ΔΔG relative to wild type CBP KIX (CBP KIX I660A [36]): 1.4 kcal/mol | ΔΔG relative to wild type CBP KIX (CBP KIX I657A [37]): 1.1 kcal/mol

GPSQPTYPGDDAPVRRL[pS]FFYILLDLYLDAPGVC(acetamidofluorescein)-NH2 (designed binder, also called PPKID4 (phosphorylated)) [PPKID4^P]
Kd (HisKIX [9]): 515 nM | Kd (HisKIX [10]): 515 nM | Kd (CBP KIX Y658F [11]): 4.1 µM | Kd (CBP KIX Y658A [12]): 3900 nM | Kd (CBP KIX K606A [13]): 3100 nM | Kd [14]: 3000 nM | Kd (CBP KIX E655A [15]): 540 nM | Kd (CBP KIX LL652-3AA [16]): 2900 nM | Kd (CBP KIX Q661A [18]): 1100 nM | Kd (CBP KIX K662A [19]): 3900 nM | Kd (CBP KIX L603A [20]): 3400 nM | Kd (CBP KIX I660A [21]): 1.1 µM | Kd (CBP KIX I657A [22]): 2.7 µM | Kd (calmodulin (Sigma) [2]): 52 µM | Kd [24]: 610 nM | Kd [38]: 610 nM | Kd (calmodulin (Sigma) [39]): 51 µM | Kd [25]: 106 µM | Kd (CBP KIX Y658A [40]): 4.1 µM

B3: p4099 (designed binder)
peptide: GPSQPTYPGDDAPVEDLIRFVGRLLAYFGDTINRYC(5‑iodoacetamidofluorescein)-NH2
notes: also called p4121-flu (labelled form, by order and mass)
fold better binding than p4101 [41]: ~2 fold | Kd [6]: 352 nM | Kd [7]: 8.6 µM | Kd (calmodulin (Sigma) [8]): 25 µM
